Experimental data: paper PMC2156165

Biological target: γ-tubulin of pig brain γ-tubulin complexes (pig (endogenous in brain))
Assay: quantitative immunoblot of the purified complexes

- abundance of 76p against γ-tubulin in the purified complexes: 5 fold
Substance: 76p of pig brain γ-tubulin complexes (76-kD polypeptide, pig orthologue of h76p = hGCP4) (natural protein)
